Assay results: patent US20240123070A1 (SHANGHAI GENBASE BIOTECHNOLOGY, published 2024)

Target: KRAS G13D antigen (G13D-RT6, SEQ ID NO: 20) loaded on Lovo-DPA0301:DPB0501 cells (human)
Experiment: cell-based or functional assay

Binder | TCR Mut RLU/WT RLU
B8.2.4 TCR mutant β97V-D (TCR, V domains shown) V domain 1: AQKITQTQPGMFVQEKEAVTLDCTYDTSDPSYGLFWYKQPSSGEMIFLIYQGSYDQQNATEGRYSLNFQKARKSANLVISASQLGDSAMYFCAMRERTGTASKLTFGTGTRLQVTL V domain 2: DVKVTQSSRYLVKRTGEKVFLECVQDMDHENMFWYRQDPGLGLRLIYFSYDVKMKEKGDIPEGYSVSREKKERFSLILESASTNQTSMYLCASSQTDPPQHFGDGTRLSILE | 0.21 ratio
B8.2.4 TCR mutant β97V-P (TCR, V domains shown) V domain 1: AQKITQTQPGMFVQEKEAVTLDCTYDTSDPSYGLFWYKQPSSGEMIFLIYQGSYDQQNATEGRYSLNFQKARKSANLVISASQLGDSAMYFCAMRERTGTASKLTFGTGTRLQVTL V domain 2: DVKVTQSSRYLVKRTGEKVFLECVQDMDHENMFWYRQDPGLGLRLIYFSYDVKMKEKGDIPEGYSVSREKKERFSLILESASTNQTSMYLCASSQTPPPQHFGDGTRLSILE | 0.32 ratio
B8.2.4 TCR mutant β97V-M (TCR, V domains shown) V domain 1: AQKITQTQPGMFVQEKEAVTLDCTYDTSDPSYGLFWYKQPSSGEMIFLIYQGSYDQQNATEGRYSLNFQKARKSANLVISASQLGDSAMYFCAMRERTGTASKLTFGTGTRLQVTL V domain 2: DVKVTQSSRYLVKRTGEKVFLECVQDMDHENMFWYRQDPGLGLRLIYFSYDVKMKEKGDIPEGYSVSREKKERFSLILESASTNQTSMYLCASSQTMPPQHFGDGTRLSILE | 0.35 ratio
B8.2.4 TCR mutant β97V-R (TCR, V domains shown) V domain 1: AQKITQTQPGMFVQEKEAVTLDCTYDTSDPSYGLFWYKQPSSGEMIFLIYQGSYDQQNATEGRYSLNFQKARKSANLVISASQLGDSAMYFCAMRERTGTASKLTFGTGTRLQVTL V domain 2: DVKVTQSSRYLVKRTGEKVFLECVQDMDHENMFWYRQDPGLGLRLIYFSYDVKMKEKGDIPEGYSVSREKKERFSLILESASTNQTSMYLCASSQTRPPQHFGDGTRLSILE | 0.37 ratio
B8.2.4 TCR mutant β97V-E (TCR, V domains shown) V domain 1: AQKITQTQPGMFVQEKEAVTLDCTYDTSDPSYGLFWYKQPSSGEMIFLIYQGSYDQQNATEGRYSLNFQKARKSANLVISASQLGDSAMYFCAMRERTGTASKLTFGTGTRLQVTL V domain 2: DVKVTQSSRYLVKRTGEKVFLECVQDMDHENMFWYRQDPGLGLRLIYFSYDVKMKEKGDIPEGYSVSREKKERFSLILESASTNQTSMYLCASSQTEPPQHFGDGTRLSILE | 0.31 ratio
B8.2.4 TCR mutant β97V-I (TCR, V domains shown) V domain 1: AQKITQTQPGMFVQEKEAVTLDCTYDTSDPSYGLFWYKQPSSGEMIFLIYQGSYDQQNATEGRYSLNFQKARKSANLVISASQLGDSAMYFCAMRERTGTASKLTFGTGTRLQVTL V domain 2: DVKVTQSSRYLVKRTGEKVFLECVQDMDHENMFWYRQDPGLGLRLIYFSYDVKMKEKGDIPEGYSVSREKKERFSLILESASTNQTSMYLCASSQTIPPQHFGDGTRLSILE | 0.61 ratio
B8.2.4 TCR mutant β97V-F (TCR, V domains shown) V domain 1: AQKITQTQPGMFVQEKEAVTLDCTYDTSDPSYGLFWYKQPSSGEMIFLIYQGSYDQQNATEGRYSLNFQKARKSANLVISASQLGDSAMYFCAMRERTGTASKLTFGTGTRLQVTL V domain 2: DVKVTQSSRYLVKRTGEKVFLECVQDMDHENMFWYRQDPGLGLRLIYFSYDVKMKEKGDIPEGYSVSREKKERFSLILESASTNQTSMYLCASSQTFPPQHFGDGTRLSILE | 0.31 ratio
B8.2.4 TCR mutant β97V-S (TCR, V domains shown) V domain 1: AQKITQTQPGMFVQEKEAVTLDCTYDTSDPSYGLFWYKQPSSGEMIFLIYQGSYDQQNATEGRYSLNFQKARKSANLVISASQLGDSAMYFCAMRERTGTASKLTFGTGTRLQVTL V domain 2: DVKVTQSSRYLVKRTGEKVFLECVQDMDHENMFWYRQDPGLGLRLIYFSYDVKMKEKGDIPEGYSVSREKKERFSLILESASTNQTSMYLCASSQTSPPQHFGDGTRLSILE | 0.78 ratio
B8.2.4 TCR mutant β97V-K (TCR, V domains shown) V domain 1: AQKITQTQPGMFVQEKEAVTLDCTYDTSDPSYGLFWYKQPSSGEMIFLIYQGSYDQQNATEGRYSLNFQKARKSANLVISASQLGDSAMYFCAMRERTGTASKLTFGTGTRLQVTL V domain 2: DVKVTQSSRYLVKRTGEKVFLECVQDMDHENMFWYRQDPGLGLRLIYFSYDVKMKEKGDIPEGYSVSREKKERFSLILESASTNQTSMYLCASSQTKPPQHFGDGTRLSILE | 0.48 ratio
B8.2.4 TCR mutant β97V-N (TCR, V domains shown) V domain 1: AQKITQTQPGMFVQEKEAVTLDCTYDTSDPSYGLFWYKQPSSGEMIFLIYQGSYDQQNATEGRYSLNFQKARKSANLVISASQLGDSAMYFCAMRERTGTASKLTFGTGTRLQVTL V domain 2: DVKVTQSSRYLVKRTGEKVFLECVQDMDHENMFWYRQDPGLGLRLIYFSYDVKMKEKGDIPEGYSVSREKKERFSLILESASTNQTSMYLCASSQTNPPQHFGDGTRLSILE | 0.26 ratio
B8.2.4 TCR mutant β97V-H (TCR, V domains shown) V domain 1: AQKITQTQPGMFVQEKEAVTLDCTYDTSDPSYGLFWYKQPSSGEMIFLIYQGSYDQQNATEGRYSLNFQKARKSANLVISASQLGDSAMYFCAMRERTGTASKLTFGTGTRLQVTL V domain 2: DVKVTQSSRYLVKRTGEKVFLECVQDMDHENMFWYRQDPGLGLRLIYFSYDVKMKEKGDIPEGYSVSREKKERFSLILESASTNQTSMYLCASSQTHPPQHFGDGTRLSILE | 0.44 ratio
B8.2.4 TCR mutant β97V-L (TCR, V domains shown) V domain 1: AQKITQTQPGMFVQEKEAVTLDCTYDTSDPSYGLFWYKQPSSGEMIFLIYQGSYDQQNATEGRYSLNFQKARKSANLVISASQLGDSAMYFCAMRERTGTASKLTFGTGTRLQVTL V domain 2: DVKVTQSSRYLVKRTGEKVFLECVQDMDHENMFWYRQDPGLGLRLIYFSYDVKMKEKGDIPEGYSVSREKKERFSLILESASTNQTSMYLCASSQTLPPQHFGDGTRLSILE | 0.58 ratio
B8.2.4 TCR mutant β97V-G (TCR, V domains shown) V domain 1: AQKITQTQPGMFVQEKEAVTLDCTYDTSDPSYGLFWYKQPSSGEMIFLIYQGSYDQQNATEGRYSLNFQKARKSANLVISASQLGDSAMYFCAMRERTGTASKLTFGTGTRLQVTL V domain 2: DVKVTQSSRYLVKRTGEKVFLECVQDMDHENMFWYRQDPGLGLRLIYFSYDVKMKEKGDIPEGYSVSREKKERFSLILESASTNQTSMYLCASSQTGPPQHFGDGTRLSILE | 0.26 ratio
B8.2.4 TCR mutant β97V-Q (TCR, V domains shown) V domain 1: AQKITQTQPGMFVQEKEAVTLDCTYDTSDPSYGLFWYKQPSSGEMIFLIYQGSYDQQNATEGRYSLNFQKARKSANLVISASQLGDSAMYFCAMRERTGTASKLTFGTGTRLQVTL V domain 2: DVKVTQSSRYLVKRTGEKVFLECVQDMDHENMFWYRQDPGLGLRLIYFSYDVKMKEKGDIPEGYSVSREKKERFSLILESASTNQTSMYLCASSQTQPPQHFGDGTRLSILE | 0.3 ratio
